Reference: patent US20060269536

Columns and labels:
[1] = tested on: substrate pentapeptide RGR↓SE
[2] = tested on: substrate pentapeptide MTR↓SN
[3] = tested on: substrate pentapeptide RR↓SID
[4] = tested on: substrate pentapeptide KLR↓TT
[5] = tested on: substrate pentapeptide LR↓SRA
[6] = tested on: substrate pentapeptide ER↓VSP

Q: Which results are given for human glandular kallikrein hK2?
A: substrate phage display: peptide selected as cleaved by hK2 (scissile bond ↓) [1]: RGR↓SE; substrate phage display: peptide selected as cleaved by hK2 (scissile bond ↓) [2]: MTR↓SN; substrate phage display: peptide selected as cleaved by hK2 (scissile bond ↓) [3]: RR↓SID; substrate phage display: peptide selected as cleaved by hK2 (scissile bond ↓) [4]: KLR↓TT; substrate phage display: peptide selected as cleaved by hK2 (scissile bond ↓) [5]: LR↓SRA; substrate phage display: peptide selected as cleaved by hK2 (scissile bond ↓) [6]: ER↓VSP
